Read-outs that look alike come from different tables or passages of the source. Blank lines part the entries; values can stand above or below the binder they belong to.
B6: 15N-labeled RAD52-CTD (217-418), GST tag cleaved (domain or fragment)
chain: PQLQQVTSPSRPSHAVIPADQDCSSRSLSSSAVESEATHQRKLRQKQLQQQFRERMEKQQVRVSTPSAEKSEAAPPAPPVTHSTPVTVSEPLLEKDFLAGVTQELIKTLEDNSEKWAVTPDAGDGVVKPSSRADPAQTSDTLALNNQMVTQNRTPHSVCHQKPQAKSGSWDLQTYSADQRTTGNWESHRKSQDMKKRKYDPS
modifications: uniformly 15N labeled

Experiments:
RAD52 full length [1] = target: T1, RAD52 full length (UniProt P43351 1-418); assay: EMSA
T1 sequence: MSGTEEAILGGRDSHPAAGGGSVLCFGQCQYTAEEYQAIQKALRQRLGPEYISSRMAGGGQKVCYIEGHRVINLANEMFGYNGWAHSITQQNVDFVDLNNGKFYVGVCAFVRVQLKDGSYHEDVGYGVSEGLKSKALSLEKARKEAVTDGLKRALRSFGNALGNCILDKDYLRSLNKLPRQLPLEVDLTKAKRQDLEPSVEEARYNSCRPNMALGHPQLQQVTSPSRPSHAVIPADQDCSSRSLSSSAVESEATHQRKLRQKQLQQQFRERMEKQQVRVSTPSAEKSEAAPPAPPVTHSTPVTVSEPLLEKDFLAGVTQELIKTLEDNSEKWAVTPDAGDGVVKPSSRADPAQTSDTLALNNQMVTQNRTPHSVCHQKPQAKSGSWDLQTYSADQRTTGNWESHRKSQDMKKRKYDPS

RAD52-CTD [2] = target: T2, RAD52-CTD (UniProt P43351 217-418); assay: EMSA
T2 sequence: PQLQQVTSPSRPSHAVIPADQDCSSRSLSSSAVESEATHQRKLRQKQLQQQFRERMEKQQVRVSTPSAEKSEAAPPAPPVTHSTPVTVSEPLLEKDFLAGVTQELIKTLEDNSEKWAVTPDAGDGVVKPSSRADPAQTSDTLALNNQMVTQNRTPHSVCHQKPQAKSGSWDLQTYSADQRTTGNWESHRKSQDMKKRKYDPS

[3] = target: B6; assay: NMR titration
[4] = target: RPA heterotrimer (RPA70:RPA32:RPA14) (human, UniProt P27694;P15927;P35244 1-616;1-270;1-121); assay: EMSA
RAD52 full length [5] = target: T1, RAD52 full length; assay: EMSA; remark: listed apart in the source
RAD52-CTD [6] = target: T2, RAD52-CTD; assay: EMSA; remark: listed apart in the source
[7] = target: T3, full-length RPA trimer (RPA70:RPA14:RPA32) (human, UniProt P27694;P15927;P35244); assay: pull-down
[8] = target: T3, full-length RPA trimer …; assay: pull-down; remark: listed apart in the source
[9] = target: T3, full-length RPA trimer …; assay: NMR titration

T3 sequence (P15927 whole entry, chain 2 of 2): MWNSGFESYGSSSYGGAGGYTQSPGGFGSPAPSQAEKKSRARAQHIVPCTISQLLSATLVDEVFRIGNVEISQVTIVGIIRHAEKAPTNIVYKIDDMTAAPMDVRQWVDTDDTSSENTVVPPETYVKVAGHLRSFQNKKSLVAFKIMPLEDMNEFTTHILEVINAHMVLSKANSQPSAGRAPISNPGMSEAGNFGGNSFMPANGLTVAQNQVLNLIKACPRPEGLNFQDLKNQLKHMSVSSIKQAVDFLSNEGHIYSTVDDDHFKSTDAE
T3 sequence (P35244 whole entry, chain 3 of 2): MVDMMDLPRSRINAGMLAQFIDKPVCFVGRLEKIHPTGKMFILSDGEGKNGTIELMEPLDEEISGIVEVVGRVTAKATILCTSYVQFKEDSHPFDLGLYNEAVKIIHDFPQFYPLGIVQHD
Chain of RPA heterotrimer (RPA70:RPA32:RPA14) (P15927 whole entry, chain 2 of 2): as the sequence (P15927 whole entry, chain 2 of 2) above
Chain of RPA heterotrimer (RPA70:RPA32:RPA14) (P35244 whole entry, chain 3 of 2): as the sequence (P35244 whole entry, chain 3 of 2) above

B1: no. 1 63-mer ssDNA (ssDNA)
DNA: ACAGCACCAGATTCAGCAATTAAGCTCTAAGCCATCCGCAAAAATGACCTCTTATCAAAAGGA
binding result (RAD52 full length [1]): binds | binding result (RAD52-CTD [2]): no binding

B3: no. 517 63-mer RNA (ssRNA)
RNA: UCCUUUUGAUAAGAGGUCAUUUUUGCGGAUGGCUUAGAGCUUAAUUGCUGAAUCUGGUGCUGU
binding result [4]: binds | binding result (RAD52 full length [5]): binds | binding result (RAD52-CTD [6]): no binding

Binder: B6
binding result [9]: binds

Continued, values first:

binding result [3]: binds
B2: Human RPA70N (1-120) (domain or fragment)
chain: MVGQLSEGAIAAIMQKGDTNIKPILQVINIRPITTGNSPPRYRLLMSDGLNTLSSFMLATQLNPLVEEEQLSSNCVCQIHRFIVNTLKDGRRVVILMELEVLKSAEAVGVKIGNPVPYNE

binding result [7]: binds
B4: GST-tagged RAD52 CTD (217-418) wild type (domain or fragment)
chain: PQLQQVTSPSRPSHAVIPADQDCSSRSLSSSAVESEATHQRKLRQKQLQQQFRERMEKQQVRVSTPSAEKSEAAPPAPPVTHSTPVTVSEPLLEKDFLAGVTQELIKTLEDNSEKWAVTPDAGDGVVKPSSRADPAQTSDTLALNNQMVTQNRTPHSVCHQKPQAKSGSWDLQTYSADQRTTGNWESHRKSQDMKKRKYDPS

binding result [8]: binds
B5: GST-tagged RAD52 CTD (217-418) L314A/V317N/L321Q/I322Q/L325A/W332A (domain or fragment, human, UniProt P43351 217-418, looked up)
chain: PQLQQVTSPSRPSHAVIPADQDCSSRSLSSSAVESEATHQRKLRQKQLQQQFRERMEKQQVRVSTPSAEKSEAAPPAPPVTHSTPVTVSEPLLEKDFAAGNTQEQQKTAEDNSEKAAVTPDAGDGVVKPSSRADPAQTSDTLALNNQMVTQNRTPHSVCHQKPQAKSGSWDLQTYSADQRTTGNWESHRKSQDMKKRKYDPS

— publication doi:10.1101/2025.07.22.666130 (bioRxiv, 2025)
